Measured values from article PMC7144582.

B1: CD2AP SH3-B, Q9Y5K6 (protein)
chain: TKKRQCKVLFEYIPQNEDELELKVGDIIDINEEVEEGWWSGTLNNKLGLFPSNFVKELEV
B2: CD2AP SH3-C, Q9Y5K6 (protein)
chain: KAKEYCRTLFAYEGTNEDELTFKEGEIIHLISKETGEAGWWRGELNGKEGVFPDNFAVQINE

Experiments:
[1] = biological target: CHIKV nsP3 hypervariable domain (HVD), aa 325-523, with C-terminal Twin-Strep-tag (chikungunya virus (CHIKV) strain 181-25); test: NMR titration
[2] = biological target: nsP3 Site 1 (Chikungunya virus), Q8JUX6; test: NMR

Molecule | apparent KD, Site 2 [1] [µM] | KD, Site 1 [1] [µM] | Kd [2] [µM]
CD2AP SH3-C domain (domain or fragment) | 154 |  | 
CD2AP SH3-A domain (domain or fragment) | 137 |  | 
CD2AP SH3-B domain (domain or fragment) | 75.7 | 4.5 | 
B1 |  |  | 4.5
B2 |  |  | 51.7
